Article doi:10.1101/2021.05.10.443412

Assays:
[1] = target: T1, factor inhibiting HIF-1 (FIH-1), full-length (human), Q9NWT6; test: SEC-MALS; details: remark: other sources report otherwise
[2] = target: T1, factor inhibiting HIF-1 (FIH-1), …; test: SEC; details: remark: other sources report otherwise

B1: factor inhibiting HIF-1 (FIH-1), full-length, Q9NWT6 1-349 (enzyme)
chain: MAATAAEAVASGSGEPREEAGALGPAWDESQLRSYSFPTRPIPRLSQSDPRAEELIENEEPVVLTDTNLVYPALKWDLEYLQENIGNGDFSVYSASTHKFLYYDEKKMANFQNFKPRSNREEMKFHEFVEKLQDIQQRGGEERLYLQQTLNDTVGRKIVMDFLGFNWNWINKQQGKRGWGQLTSNLLLIGMEGNVTPAHYDEQQNFFAQIKGYKRCILFPPDQFECLYPYPVHHPCDRQSQVDFDNPDYERFPNFQNVVGYETVVGPGDVLYIPMYWWHHIESLLNGGITITVNFWYKGAPTPKRIEYPLKAHQKVAIMRNIEKMLGEALGNPQEVGPLLNTMIKGRYN
stoichiometry N [1]: 2 | stoichiometry N [2]: 2
